From patent publication US20070286858A1 (Pfizer, published 2007)

T1: baboon RAGE (baboon (Papio cyanocephalus), UniProt Q15109 23-404 (human entry))
T1 construct: On transfected 293 cells or endogenous in baboon lung sections; also called 293-baboon RAGE; RAGE in baboon lung
T1 chain: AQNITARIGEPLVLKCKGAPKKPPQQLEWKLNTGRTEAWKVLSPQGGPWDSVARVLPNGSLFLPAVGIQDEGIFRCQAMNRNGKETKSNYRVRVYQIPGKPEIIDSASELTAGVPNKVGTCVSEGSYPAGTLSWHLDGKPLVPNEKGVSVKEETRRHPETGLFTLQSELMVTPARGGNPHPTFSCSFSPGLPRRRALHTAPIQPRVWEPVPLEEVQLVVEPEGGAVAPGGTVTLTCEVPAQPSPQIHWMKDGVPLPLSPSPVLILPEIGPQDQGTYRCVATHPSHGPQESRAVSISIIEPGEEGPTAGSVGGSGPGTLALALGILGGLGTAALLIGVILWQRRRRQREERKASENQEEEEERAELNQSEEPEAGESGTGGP

T2: murine RAGE-strep tag fusion protein (mouse, UniProt Q62151 23-343)
T2 construct: also called mRAGE-strep; mRAGE-SA
T2 chain: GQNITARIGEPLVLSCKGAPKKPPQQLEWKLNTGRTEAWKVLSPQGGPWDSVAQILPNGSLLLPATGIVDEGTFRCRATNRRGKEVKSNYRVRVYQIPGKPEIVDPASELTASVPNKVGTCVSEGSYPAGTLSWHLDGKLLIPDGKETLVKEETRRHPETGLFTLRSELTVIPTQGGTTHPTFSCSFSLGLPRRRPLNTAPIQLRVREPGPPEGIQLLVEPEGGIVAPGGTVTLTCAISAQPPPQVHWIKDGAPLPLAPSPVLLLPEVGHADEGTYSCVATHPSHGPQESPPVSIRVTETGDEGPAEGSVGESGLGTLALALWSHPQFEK


How the values were obtained:
baboon RAGE = molecular target: T1, baboon RAGE; experiment: IHC, septic baboon lung, 1 µg/ml
Method: Immunohistochemistry for RAGE lung tissues isolated from baboon, cynomolgus monkey, rabbit or Chinese Hamster Ovary cells over-expressing human RAGE or control CHO cells were performed using standard techniques. RAGE antibodies and rat IgG2b isotype control or mouse isotype control were used at […]. […] Following detection with HRP and Alexa Fluor 594, Alexa Fluor 488 or anti-biotin conjugated with FITC, sections were also stained with 4′-6-Diamidino-2-phenylindole (DAPI).
CHO cells stable transfected with an expression vector that expresses DNA encoding hRAGE is used as a positive control.

[1] = molecular target: T3, soluble human streptavidin-tagged RAGE (human, UniProt Q15109 23-344); experiment: BIACORE capture assay, antibody on CM5 chip, hRAGE-SA 0-100 nM in solution
T3 construct: also called hRAGE-SA; human RAGE-strep
Method: The assays were performed by coating antibodies onto a CM5 BIA chip with 5000-7000 RU.

BSA = molecular target: T4, BSA (Bos taurus, UniProt P02769); experiment: ELISA of E. coli periplasmic ScFv cross-linked with anti-His antibody, on coated BSA
T4 construct: control antigen in the ScFv ELISA; also called bovine serum albumin
Method: ActRIIb represents a non-binding protein expressed from the same vector as a negative control. ELISA plates were coated with human RAGE-Fc (5 ug/ml) or BSA (200 ug/ml) in bicarbonate buffer overnight at 4 °C, washed with PBS+tween 0.05% and blocked for 1 hour at room temperature with 2% milk powder PBS. Periplasmic preparations of 20 ml E. coli cultures were performed using standard procedures. The final volume of periplasmic preparations of unpurified ScFv antibodies was 1 ml of which 50 ul was pre-incubated with anti-His antibody at 1/1000 dilution for 1 hour at room temperature in a total volume of 100 ul with 2% milk powder PBS. The cross linked periplasmic preparations were added to the ELISA plate and incubated for a further 2 hours at room temperature. The plates were washed 2 times with PBS+0.05% tween and 2 times with PBS and incubated with rabbit anti-mouse HRP at 1/1000 dilution in 2% milk powder PBS. The plates were washed as before and binding was detected using standard TMB reagents. […] Starting Kd values of the ScFv in both formats as determined by BIACORE™ are used to determine the optimum antigen concentrations for affinity selections.

[2] = molecular target: T5, human RAGE-Fc fusion protein (human, UniProt Q15109 23-344); experiment: ELISA of in vitro translated ScFv on coated human RAGE-Fc, anti-Flag detection
T5 construct: also called hRAGE-Fc; huRAGE-Fc; not shown: Fc domain of human IgG
Method: ELISA plates coated with human RAGE-Fc (5 ug/ml) or BSA (200 ug/ml) in bicarbonate buffer overnight at 4° C., washed with PBS+tween 0.05% and blocked for 1 hour at room temperature with 2% milk powder PBS. Plates were incubated with in vitro translated ScFv for 2 hours at room temp. Plates were blocked and detection was with anti-Flag antibody (1/1000 dilution) followed by rabbit anti-mouse HRP (1/1000 dilution). […] Values for Kd of the ScFv in both formats as determined by BIACORE™ are used to determine the optimum antigen concentrations for selection experiments.

[3] = molecular target: T3, soluble human streptavidin-tagged RAGE; experiment: BIACORE capture, hRAGE-SA over captured antibody, steady state affinity, FC3
Method: (§1) The assays were performed by coating anti-human Fc antibodies onto a CM5 BIA chip with 5000 RU (pH 5.0, 7 min.) in flow cells 1-4. Each antibody was captured by flowing at 2.0 μg/ml over the anti-Fc antibodies in flow cells 2-4 (flow cell 1 was used as a reference).

[4] = molecular target: T2, murine RAGE-strep tag fusion protein; experiment: BIACORE capture, SA-Mu RAGE over captured antibody, 1:1 Langmuir global fit, row Average
Method: as §1

[5] = molecular target: T3, soluble human streptavidin-tagged RAGE; experiment: BIACORE capture, hRAGE-SA over captured antibody, 1:1 Langmuir global fit, row Average
Method: as §1

[6] = molecular target: T2, murine RAGE-strep tag fusion protein; experiment: BIACORE capture, SA-Mu RAGE over captured antibody, 1:1 Langmuir global fit, FC2
Method: as §1

[7] = molecular target: T3, soluble human streptavidin-tagged RAGE; experiment: BIACORE capture, hRAGE-SA over captured antibody, 1:1 Langmuir global fit, FC2
Method: as §1

[8] = molecular target: T3, soluble human streptavidin-tagged RAGE; experiment: BIACORE capture, hRAGE-SA over captured antibody, steady state affinity, FC2
Method: as §1

[9] = molecular target: T3, soluble human streptavidin-tagged RAGE; experiment: BIACORE capture, hRAGE-SA over captured antibody, 1:1 Langmuir global fit, FC4
Method: as §1

[10] = molecular target: T3, soluble human streptavidin-tagged RAGE; experiment: BIACORE capture, hRAGE-SA over captured antibody, steady state affinity, FC4
Method: as §1

[11] = molecular target: T2, murine RAGE-strep tag fusion protein; experiment: BIACORE capture, SA-Mu RAGE over captured antibody, 1:1 Langmuir global fit, FC4
Method: as §1

[12] = molecular target: T3, soluble human streptavidin-tagged RAGE; experiment: BIACORE capture, hRAGE-SA over captured antibody, 1:1 Langmuir global fit, FC3
Method: as §1

[13] = molecular target: T2, murine RAGE-strep tag fusion protein; experiment: BIACORE capture, SA-Mu RAGE over captured antibody, 1:1 Langmuir global fit, FC3
Method: as §1

[14] = molecular target: T3, soluble human streptavidin-tagged RAGE; experiment: BIACORE capture, hRAGE-SA over captured antibody, steady state affinity, row Average
Method: as §1

T4 sequence (P02769 25-607 limits assumed): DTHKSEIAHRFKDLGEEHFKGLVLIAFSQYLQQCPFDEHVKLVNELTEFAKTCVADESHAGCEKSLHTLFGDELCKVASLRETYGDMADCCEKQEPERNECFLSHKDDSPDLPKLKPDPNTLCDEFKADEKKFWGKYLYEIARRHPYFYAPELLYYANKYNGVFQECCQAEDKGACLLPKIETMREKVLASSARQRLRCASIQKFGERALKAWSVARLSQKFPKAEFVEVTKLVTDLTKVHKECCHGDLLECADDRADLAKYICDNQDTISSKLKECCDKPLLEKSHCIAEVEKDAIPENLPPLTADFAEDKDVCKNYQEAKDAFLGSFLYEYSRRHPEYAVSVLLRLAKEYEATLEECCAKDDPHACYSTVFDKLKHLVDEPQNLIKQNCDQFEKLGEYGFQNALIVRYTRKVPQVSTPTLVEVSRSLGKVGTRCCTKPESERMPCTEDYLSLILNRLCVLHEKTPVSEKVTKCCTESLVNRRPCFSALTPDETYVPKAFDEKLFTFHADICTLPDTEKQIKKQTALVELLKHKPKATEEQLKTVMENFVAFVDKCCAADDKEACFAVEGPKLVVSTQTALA

binding result (BSA) | binding result [2] | Kd [3] [nM] | Kd [4] [nM] | koff [4] [s⁻¹] | kon [4] [M⁻¹ s⁻¹] | Kd [5] [nM] | koff [5] [s⁻¹] | kon [5] [M⁻¹ s⁻¹] | Kd [6] [nM] | koff [6] [s⁻¹] | kon [6] [M⁻¹ s⁻¹] | Kd [7] [nM] | koff [7] [s⁻¹] | kon [7] [M⁻¹ s⁻¹] | Kd [8] [nM] | Kd [9] [nM] | koff [9] [s⁻¹] | kon [9] [M⁻¹ s⁻¹] | Kd [10] [nM] | Binder | other results
– | – | – | – | – | – | – | – | – | – | – | – | – | – | – | – | – | – | – | – | XT-H5 (antibody, mouse IgG1, V domains shown, also called 1hRAGEP3/55) VH: EVLLQQSGPELVKPGASVKISCKASGYTFTDYNMDWVKQSHGKSLEWIGDINPDNGGTIYKQKFKGKATLTVDKSSSTAYMELRSLTSEDTAVYYCTTHDHYYYALDYWGQGTSVTVSS VL: not shown | binding result (baboon RAGE): binds; Ka [1]: 3.69e+08 M⁻¹; Kd [1]: 2.71 nM; koff [1]: 0.00451 s⁻¹; kon [1]: 1.66e+06 M⁻¹ s⁻¹
no binding | binds | – | – | – | – | – | – | – | – | – | – | – | – | – | – | – | – | – | – | XT-M4 VL-VH ScFv construct (scFv, Tags (Flag in vitro, His in E. coli) inferred from detection) scFv: DIQMTQSPSSMSVSLGDTITITCRASQDVGIYVNWFQQKPGKSPRRMIYRATNLADGVPSRFSGSRSGSIYSLTISSLESEDVADYHCLEFDEHPLTFGSGTKVEIKDGGGSGGGGSGGGGSSEVQLVESGGGLVQPGRSLKLSCVVSGFTFNNYWMTWIRQTPGKGLEWVASINNSGDNTYYPDSVKDRFTISRDNAKSTLYLQMNSLRSEDTATYYCTRGGDITTGFDYWGQGVMVTVSS | –
no binding | binds | – | – | – | – | – | – | – | – | – | – | – | – | – | – | – | – | – | – | XT-H2 VL-VH ScFv construct (scFv, Tags (Flag when translated in vitro, His when made in E. coli) are inferred from the detection antibodies) scFv: DVVLTQTPLSLPVNIGDQASISCKSTKSLLNSDGFTYLDWYLQKPGQSPQLLIYLVSDRFSGVPDRFSGSGSGTDFTLTISRVEAEDLGVYYCFQSNSLPLTFGSGTKLEIKDGGGSGGGGSGGGGSSQVQLQQSGAELAKPGASVKMSCKASGYTFTTYWMHWVKQRPGQGLYWIGYINPSTGYTEYNQKFKDKATLTADKSSSTAYMQLSSLTSEDSAVYYCARWAGYTIDYWGQGTSVTVSS | –
– | – | 15 | 2 | 0.0042 | 2.1e+06 | 12.9 | 0.0497 | 3.88e+06 | 2 | 0.0043 | 2.2e+06 | 13.8 | 0.0366 | 2.66e+06 | 16 | 13.2 | 0.0661 | 5.02e+06 | 16 | XT-M4-V14 (antibody, V domains shown) VH: EVQLVESGGGLVQPGGSLRLSCAASGFTFNNYWMTWVRQAPGKGLEWVASIDNSGDNTYYPDSVKDRFTISRDNAKNSLYLQMNSLRAEDTAVYYCARGGDITTGFDYWGQGTLVTVSS VL: DIQMTQSPSSLSASVGDRVTITCRASQDVGIYVNWFQQKPGKAPKRLIYRATNLADGVPSRFSGSRSGTDFTLTISSLQPEDFATYYCLEFDEHPLTFGGGTKVEIK | Kd [11]: 2 nM; koff [11]: 0.0041 s⁻¹; kon [11]: 2.1e+06 M⁻¹ s⁻¹; Kd [12]: 11.7 nM; koff [12]: 0.0464 s⁻¹; kon [12]: 3.96e+06 M⁻¹ s⁻¹; Kd [13]: 1.9 nM; koff [13]: 0.004 s⁻¹; kon [13]: 2.1e+06 M⁻¹ s⁻¹; Kd [14]: 16 nM
– | – | 15 | 2 | 0.0042 | 2.1e+06 | 12.5 | 0.0374 | 3.01e+06 | 2 | 0.0043 | 2.2e+06 | 13 | 0.033 | 2.5e+06 | 16 | 13 | 0.041 | 3.2e+06 | 17 | XT-M4-V11 (antibody, V domains shown) VH: EVQLVESGGGLVQPGGSLRLSCAASGFTFNNYWMTWVRQAPGKGLEWVASIDNSGDNTYYPDSVKDRFTISRDNAKNSLYLQMNSLRAEDTAVYYCARGGDITTGFDYWGQGTLVTVSS VL: DIQMTQSPSSLSASVGDRVTITCRASQDVGIYVNWFQQKPGKAPRRLIYRATNLADGVPSRFSGSRSGTDFTLTISSLQPEDFATYYCLEFDEHPLTFGGGTKVEIK | Kd [11]: 2 nM; koff [11]: 0.0041 s⁻¹; kon [11]: 2e+06 M⁻¹ s⁻¹; Kd [12]: 12 nM; koff [12]: 0.039 s⁻¹; kon [12]: 3.4e+06 M⁻¹ s⁻¹; Kd [13]: 2 nM; koff [13]: 0.0042 s⁻¹; kon [13]: 2.1e+06 M⁻¹ s⁻¹; Kd [14]: 16 nM
